Measured values published in US20250197488A1 (MABWELL SHANGHAI BIOSCIENCE, published 2025).

Tests used:
[1] = molecular target: T1, IL-11 (Cat. 12225-HNCE, Sino Biological Inc.) (UniProt P20809 22-199, limits assumed); assay: cell-based or functional assay
T1 sequence (looked up): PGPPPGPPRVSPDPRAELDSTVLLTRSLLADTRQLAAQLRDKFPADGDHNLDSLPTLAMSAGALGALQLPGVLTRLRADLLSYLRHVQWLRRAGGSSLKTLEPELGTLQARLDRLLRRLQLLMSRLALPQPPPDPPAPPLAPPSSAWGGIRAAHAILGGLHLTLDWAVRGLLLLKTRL

[2] = molecular target: T2, human IL-11 (AAH12506.1, Pro22-Leu199) (human, UniProt P20809 22-199); assay: BLI (Octet), antibody captured, human IL-11 in solution
T2 construct: The range Pro22-Leu199 counts on AAH12506.1; The Octet runs say only 'human IL-11'; also called hIL-11
T2 chain: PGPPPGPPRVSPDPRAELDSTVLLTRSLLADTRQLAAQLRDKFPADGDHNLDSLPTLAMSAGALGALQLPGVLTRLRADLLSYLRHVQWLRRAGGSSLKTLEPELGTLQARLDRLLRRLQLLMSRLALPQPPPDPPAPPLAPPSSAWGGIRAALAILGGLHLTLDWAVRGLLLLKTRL
Method in brief: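 Bio-layer interferometry on a Fortebio Octet QKe System. Antibodies (hybridoma supernatant or purified, diluted in HBS-EP+ buffer) were captured on anti-mouse IgG Fc (AMC) or anti-human Fc (AHC) biosensors. Human IL-11 at 300 nM in HBS-EP+ buffer flowed over, with 300 seconds association and 300 seconds dissociation. Blank-subtracted curves were fitted to a 1:1 Langmuir binding model to derive kon, koff and Kd.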

B1: hz18A10-VHm19 + hz18A10-VLm19 (antibody, human IgG1, kappa, V domains shown)
VH: EVQLVQSGAEVKKPGASVKVSCKASGYTFTHYNMDWVRQAPGQGLEWMGTIYPGNADTSYNQKFKGRVTMTRDTSTSTVYMELSSLRSEDTAVYYCARGDLYALDYWGQGTLVTVSS
VL: DIQMTQSPSSLSASVGDRVTITCKASQSVYRDVAWYQQKPGKAPKLLIYSASNRYTGVPSRFSGSGSGTDFTFTISSLQPEDIATYYCQHDYSSPYTFGQGTKLEIKR
notes: named hz18A10m19; also called hz18A10m19
B1 was tested, and the “Blocking activity (IC50), STAT3-luc reporter” value (shortened to “Blocking activity (IC50)”) [1] was 0.13 µg/mL, the Kd [2] was 0.101 nM and the koff [2] was 0.0001 s⁻¹. For the same binder, the kon [2] was 993000 M⁻¹ s⁻¹.

B2: hz18A10-VH + hz18A10-VLm9 (antibody, V domains shown)
VH: EVQLVQSGAEVKKPGASVKVSCKASGYTFTTYNMDWVRQAPGQGLEWMGTIYPGNGDTSYNQKFKGRVTMTRDTSTSTVYMELSSLRSEDTAVYYCARGDLYALDYWGQGTLVTVSS
VL: DIQMTQSPSSLSASVGDRVTITCKASQSVYSDVAWYQQKPGKAPKLLIYSASNRYTGVPSRFSGSGSGTDFTFTISSLQPEDIATYYCQHDYSSPYTFGQGTKLEIK
notes: Constant regions not restated for this antibody
With B2 the “Blocking activity (IC50)” value [1] was 1.25 µg/mL, the Kd [2] was 0.54 nM and the koff [2] was 0.000463 s⁻¹. It also gave a kon [2] of 859000 M⁻¹ s⁻¹.

B3: hz18A10-VH + hz18A10-VLm3 (antibody, V domains shown)
VH: EVQLVQSGAEVKKPGASVKVSCKASGYTFTTYNMDWVRQAPGQGLEWMGTIYPGNGDTSYNQKFKGRVTMTRDTSTSTVYMELSSLRSEDTAVYYCARGDLYALDYWGQGTLVTVSS
VL: DIQMTQSPSSLSASVGDRVTITCKASHSVSNDVAWYQQKPGKAPKLLIYSASNRYTGVPSRFSGSGSGTDFTFTISSLQPEDIATYYCQHDYSSPYTFGQGTKLEIK
notes: as for B2
For B3, the “Blocking activity (IC50)” value [1] was 15.2 µg/mL, the Kd [2] was 3.94 nM and the koff [2] was 0.00277 s⁻¹. It also gave a kon [2] of 704000 M⁻¹ s⁻¹.

B4: hz18A10-VH + hz18A10-VLm11 (antibody, V domains shown)
VH: EVQLVQSGAEVKKPGASVKVSCKASGYTFTTYNMDWVRQAPGQGLEWMGTIYPGNGDTSYNQKFKGRVTMTRDTSTSTVYMELSSLRSEDTAVYYCARGDLYALDYWGQGTLVTVSS
VL: DIQMTQSPSSLSASVGDRVTITCKASQSVSNDVAWYQQKPGKAPKLLIYRASNRYTGVPSRFSGSGSGTDFTFTISSLQPEDIATYYCQHDYSSPYTFGQGTKLEIK
notes: as for B2
B4 was tested, and the “Blocking activity (IC50)” value [1] was 4.07 µg/mL, the Kd [2] was 1.8 nM and the koff [2] was 0.00134 s⁻¹. For the same binder, the kon [2] was 747000 M⁻¹ s⁻¹.

B5: hz18A10-VH + hz18A10-VLm2 (antibody, V domains shown)
VH: EVQLVQSGAEVKKPGASVKVSCKASGYTFTTYNMDWVRQAPGQGLEWMGTIYPGNGDTSYNQKFKGRVTMTRDTSTSTVYMELSSLRSEDTAVYYCARGDLYALDYWGQGTLVTVSS
VL: DIQMTQSPSSLSASVGDRVTITCKASYSVSNDVAWYQQKPGKAPKLLIYSASNRYTGVPSRFSGSGSGTDFTFTISSLQPEDIATYYCQHDYSSPYTFGQGTKLEIK
notes: as for B2
With B5 the “Blocking activity (IC50)” value [1] was 17.4 µg/mL, the Kd [2] was 2.3 nM and the koff [2] was 0.00185 s⁻¹. For the same binder, the kon [2] was 806000 M⁻¹ s⁻¹.

B6: hz18A10-VH + hz18A10-VLm18 (antibody, V domains shown)
VH: EVQLVQSGAEVKKPGASVKVSCKASGYTFTTYNMDWVRQAPGQGLEWMGTIYPGNGDTSYNQKFKGRVTMTRDTSTSTVYMELSSLRSEDTAVYYCARGDLYALDYWGQGTLVTVSS
VL: DIQMTQSPSSLSASVGDRVTITCKASQSVYRDVAWYQQKPGKAPKLLIYRASSRYTGVPSRFSGSGSGTDFTFTISSLQPEDIATYYCQHDYSSPYTFGQGTKLEIK
notes: as for B2
With B6 the “Blocking activity (IC50)” value [1] was 4.38 µg/mL, the Kd [2] was 0.419 nM and the koff [2] was 0.0003 s⁻¹. The kon [2] was 716000 M⁻¹ s⁻¹.

B7: hz18A10-VH + hz18A10-VLm5 (antibody, V domains shown)
VH: EVQLVQSGAEVKKPGASVKVSCKASGYTFTTYNMDWVRQAPGQGLEWMGTIYPGNGDTSYNQKFKGRVTMTRDTSTSTVYMELSSLRSEDTAVYYCARGDLYALDYWGQGTLVTVSS
VL: DIQMTQSPSSLSASVGDRVTITCKASQSVSNDIAWYQQKPGKAPKLLIYSASNRYTGVPSRFSGSGSGTDFTFTISSLQPEDIATYYCQHDYSSPYTFGQGTKLEIK
notes: as for B2
In the case of B7, the “Blocking activity (IC50)” value [1] is reported as 18.1 µg/mL, the Kd [2] is reported as 4.09 nM and the koff [2] is reported as 0.00281 s⁻¹. The kon [2] was 688000 M⁻¹ s⁻¹.

B8: hz18A10-VH + hz18A10-VLm8 (antibody, V domains shown)
VH: EVQLVQSGAEVKKPGASVKVSCKASGYTFTTYNMDWVRQAPGQGLEWMGTIYPGNGDTSYNQKFKGRVTMTRDTSTSTVYMELSSLRSEDTAVYYCARGDLYALDYWGQGTLVTVSS
VL: DIQMTQSPSSLSASVGDRVTITCKASQSVYHDVAWYQQKPGKAPKLLIYSASNRYTGVPSRFSGSGSGTDFTFTISSLQPEDIATYYCQHDYSSPYTFGQGTKLEIK
notes: as for B2
In the case of B8, the “Blocking activity (IC50)” value [1] is reported as 3.12 µg/mL, the Kd [2] is reported as 0.803 nM and the koff [2] is reported as 0.000746 s⁻¹. The kon [2] was 929000 M⁻¹ s⁻¹.

B9: hz18A10-VH + hz18A10-VLm16 (antibody, V domains shown)
VH: EVQLVQSGAEVKKPGASVKVSCKASGYTFTTYNMDWVRQAPGQGLEWMGTIYPGNGDTSYNQKFKGRVTMTRDTSTSTVYMELSSLRSEDTAVYYCARGDLYALDYWGQGTLVTVSS
VL: DIQMTQSPSSLSASVGDRVTITCKASQSVSNDVAWYQQKPGKAPKLLIYRASRRYPGVPSRFSGSGSGTDFTFTISSLQPEDIATYYCQHDYSSPYTFGQGTKLEIK
notes: as for B2
For B9, the “Blocking activity (IC50)” value [1] was 9.89 µg/mL, the Kd [2] was 1.97 nM and the koff [2] was 0.000938 s⁻¹. It also gave a kon [2] of 699000 M⁻¹ s⁻¹.

B10: hz18A10-VH + hz18A10-VLm12 (antibody, V domains shown)
VH: EVQLVQSGAEVKKPGASVKVSCKASGYTFTTYNMDWVRQAPGQGLEWMGTIYPGNGDTSYNQKFKGRVTMTRDTSTSTVYMELSSLRSEDTAVYYCARGDLYALDYWGQGTLVTVSS
VL: DIQMTQSPSSLSASVGDRVTITCKASQSVSNDVAWYQQKPGKAPKLLIYSASSRYTGVPSRFSGSGSGTDFTFTISSLQPEDIATYYCQHDYSSPYTFGQGTKLEIK
notes: as for B2
In the case of B10, the “Blocking activity (IC50)” value [1] is reported as 11.6 µg/mL, the Kd [2] is reported as 3.54 nM and the koff [2] is reported as 0.00265 s⁻¹. The kon [2] was 750000 M⁻¹ s⁻¹.

B11: hz18A10-VH + hz18A10-VLm10 (antibody, V domains shown)
VH: EVQLVQSGAEVKKPGASVKVSCKASGYTFTTYNMDWVRQAPGQGLEWMGTIYPGNGDTSYNQKFKGRVTMTRDTSTSTVYMELSSLRSEDTAVYYCARGDLYALDYWGQGTLVTVSS
VL: DIQMTQSPSSLSASVGDRVTITCKASQSVSNDLAWYQQKPGKAPKLLIYSASNRYTGVPSRFSGSGSGTDFTFTISSLQPEDIATYYCQHDYSSPYTFGQGTKLEIK
notes: as for B2
With B11 the “Blocking activity (IC50)” value [1] was 12.7 µg/mL, the Kd [2] was 4.06 nM and the koff [2] was 0.00295 s⁻¹. The kon [2] was 727000 M⁻¹ s⁻¹.

B12: hz18A10-VH + hz18A10-VLm1 (antibody, V domains shown)
VH: EVQLVQSGAEVKKPGASVKVSCKASGYTFTTYNMDWVRQAPGQGLEWMGTIYPGNGDTSYNQKFKGRVTMTRDTSTSTVYMELSSLRSEDTAVYYCARGDLYALDYWGQGTLVTVSS
VL: DIQMTQSPSSLSASVGDRVTITCKASKSVSNDVAWYQQKPGKAPKLLIYSASNRYTGVPSRFSGSGSGTDFTFTISSLQPEDIATYYCQHDYSSPYTFGQGTKLEIK
notes: as for B2
In the case of B12, the “Blocking activity (IC50)” value [1] is reported as 19.3 µg/mL, the Kd [2] is reported as 4.61 nM and the koff [2] is reported as 0.00331 s⁻¹. It also gave a kon [2] of 718000 M⁻¹ s⁻¹.

B13: hz18A10-VH + hz18A10-VLm6 (antibody, V domains shown)
VH: EVQLVQSGAEVKKPGASVKVSCKASGYTFTTYNMDWVRQAPGQGLEWMGTIYPGNGDTSYNQKFKGRVTMTRDTSTSTVYMELSSLRSEDTAVYYCARGDLYALDYWGQGTLVTVSS
VL: DIQMTQSPSSLSASVGDRVTITCKASQSVFHDVAWYQQKPGKAPKLLIYSASNRYTGVPSRFSGSGSGTDFTFTISSLQPEDIATYYCQHDYSSPYTFGQGTKLEIK
notes: as for B2
In the case of B13, the “Blocking activity (IC50)” value [1] is reported as 2.6 µg/mL, the Kd [2] is reported as 0.877 nM and the koff [2] is reported as 0.000794 s⁻¹. It also gave a kon [2] of 905000 M⁻¹ s⁻¹.

B14: hz18A10-VH + hz18A10-VLm4 (antibody, V domains shown)
VH: EVQLVQSGAEVKKPGASVKVSCKASGYTFTTYNMDWVRQAPGQGLEWMGTIYPGNGDTSYNQKFKGRVTMTRDTSTSTVYMELSSLRSEDTAVYYCARGDLYALDYWGQGTLVTVSS
VL: DIQMTQSPSSLSASVGDRVTITCKASQFVSNDVAWYQQKPGKAPKLLIYSASNRYTGVPSRFSGSGSGTDFTFTISSLQPEDIATYYCQHDYSSPYTFGQGTKLEIK
notes: as for B2
With B14 the “Blocking activity (IC50)” value [1] was 16.4 µg/mL, the Kd [2] was 3.12 nM and the koff [2] was 0.00237 s⁻¹. For the same binder, the kon [2] was 760000 M⁻¹ s⁻¹.

B15: hz18A10-VH + hz18A10-VLm17 (antibody, V domains shown)
VH: EVQLVQSGAEVKKPGASVKVSCKASGYTFTTYNMDWVRQAPGQGLEWMGTIYPGNGDTSYNQKFKGRVTMTRDTSTSTVYMELSSLRSEDTAVYYCARGDLYALDYWGQGTLVTVSS
VL: DIQMTQSPSSLSASVGDRVTITCKASQSVYRDVAWYQQKPGKAPKLLIYRASNRYTGVPSRFSGSGSGTDFTFTISSLQPEDIATYYCQHDYSSPYTFGQGTKLEIK
notes: as for B2
In the case of B15, the “Blocking activity (IC50)” value [1] is reported as 3.47 µg/mL, the Kd [2] is reported as 0.45 nM and the koff [2] is reported as 0.000326 s⁻¹. For the same binder, the kon [2] was 725000 M⁻¹ s⁻¹.

B16: hz18A10-VH + hz18A10-VLm13 (antibody, V domains shown)
VH: EVQLVQSGAEVKKPGASVKVSCKASGYTFTTYNMDWVRQAPGQGLEWMGTIYPGNGDTSYNQKFKGRVTMTRDTSTSTVYMELSSLRSEDTAVYYCARGDLYALDYWGQGTLVTVSS
VL: DIQMTQSPSSLSASVGDRVTITCKASQSVSNDVAWYQQKPGKAPKLLIYSASRRYTGVPSRFSGSGSGTDFTFTISSLQPEDIATYYCQHDYSSPYTFGQGTKLEIK
notes: as for B2
In the case of B16, the “Blocking activity (IC50)” value [1] is reported as 14.2 µg/mL, the Kd [2] is reported as 3.99 nM and the koff [2] is reported as 0.00268 s⁻¹. It also gave a kon [2] of 673000 M⁻¹ s⁻¹.
